Assay results taken from patent publication US20090130195A1 (UNIVERSITY OF SOUTH FLORIDA, published 2009).

Target: T1, protein kinase C-iota (PKC-ι) (human, UniProt P41743 2-596)
T1 construct: Endogenous protein immunoprecipitated or blotted from cell lysates; also called PKC-i
T1 sequence (looked up): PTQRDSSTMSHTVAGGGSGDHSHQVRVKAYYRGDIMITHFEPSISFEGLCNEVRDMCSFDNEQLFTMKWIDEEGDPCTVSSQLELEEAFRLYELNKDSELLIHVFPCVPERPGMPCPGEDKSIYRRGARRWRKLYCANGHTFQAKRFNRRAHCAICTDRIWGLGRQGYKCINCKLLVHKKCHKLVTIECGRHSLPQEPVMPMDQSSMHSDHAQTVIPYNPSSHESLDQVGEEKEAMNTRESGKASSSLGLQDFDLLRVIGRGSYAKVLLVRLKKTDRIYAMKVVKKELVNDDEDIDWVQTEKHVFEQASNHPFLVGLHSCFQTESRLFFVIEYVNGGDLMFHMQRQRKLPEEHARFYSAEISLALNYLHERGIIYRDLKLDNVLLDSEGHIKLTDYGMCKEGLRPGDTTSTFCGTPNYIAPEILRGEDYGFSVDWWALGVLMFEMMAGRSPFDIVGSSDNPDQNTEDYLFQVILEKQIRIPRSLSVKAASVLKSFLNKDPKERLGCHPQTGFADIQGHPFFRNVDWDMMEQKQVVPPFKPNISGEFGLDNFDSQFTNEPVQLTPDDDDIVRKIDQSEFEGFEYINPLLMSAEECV
Assay: Immunoprecipitation of Bad (200 µg protein) from RWPE-1 and DU-145 cells treated with control siRNA or PKC-ι siRNA, then immunoblot
Method: PKC-ι is overexpressed in non-small cell lung cancer cells (NSCLC) and it has been reported to phosphorylate Bad at multiple sites for cell survival. To test whether PKC-ι can directly phosphorylate endogenous Bad, Bad protein (200 μg) was immunoprecipitated from control siRNA and PKC-ι siRNA treated (incubation time 24 h) RWPE-1 and DU-145 cells. Normal rabbit IgG agarose conjugate (5 μg) was used as a negative control.
A similar experiment was performed with DU-145 (FIG. 8A, third column). First, we investigated if PKC-ι associates with Bad. […] However, we observed an increase in phosphorylation of Bad ser-112, no significant changes in p-Bad (ser-136) and p-Bad (ser-155).

binding result: no binding
B1: Bad (other, UniProt Q92934 1-168, looked up)
chain: MFQIPEFEPSEQEDSSSAERGLGPSPAGDGPSGSGKHHRQAPGLLWDASHQQEQPTSSSHHGGAGAVEIRSRHSSYPAGTEDDEGMGEEPSPFRGRSRSAPPNLWAAQRYGRELRRMSDEFVDSFKKGLPRPKSAGTATQMRQSSSWTRVFQSWWDRNLGRGSSAPSQ
notes: Endogenous protein from human prostate cell lines; Its phosphorylation (ser-112, ser-136, ser-155) varies with cell line and treatment; also called Bad protein
